In paper PMC4666391 (Nucleic Acids Research, 2015):

Key:
[1] = target: T1, pre-RC (MCM2–7 double-hexamer loaded on pUC19-ARS1 DNA) (S. cerevisiae, UniProt P29469 1-868; P24279 1-971; P30665 1-933; P29496 1-775; P53091 1-1017; P38132 …); assay: SEC; gel-filtration based pre-RC assay: Sld2 and Sld3 added together to pre-RC, no DDK; 40 nM each for 1 min, titrations (Sld2 60 and 90 nM; Sld3 90 nM) and time course 0.5–30 min, over which binding of both decreased; settings: both partners purified
T1 construct: Mcm2, subunit of MCM2–7, S. cerevisiae; Mcm3, subunit of MCM2–7, S. cerevisiae; Mcm4, subunit of MCM2–7, S. cerevisiae; Mcm5, subunit of MCM2–7, S. cerevisiae; Mcm6, subunit of MCM2–7, S. cerevisiae; Mcm7, subunit of MCM2–7, S. cerevisiae; Loaded around double-stranded plasmid DNA; also called pre-replicative complex; source: assembled in solution from purified ORC, Cdc6, Cdt1 and MCM2–7 (40 nM …)

[2] = target: T2, pre-RC (MCM2–7 double-hexamer on DNA) in the presence of DDK (S. cerevisiae, UniProt P29469 1-868; P24279 1-971; P30665 1-933; P29496 1-775; P53091 1-1017; P38132 …, phosphorylated by DDK, sites not printed | phosphorylated by DDK, sites not printed | phosphorylated by DDK, sites not given); assay: SEC; gel-filtration based pre-RC assay: Sld3 or Sld2 (40 nM) added alone to pre-RC with DDK (5 nM); signal corrected for Mcm2 and compared with the reaction without DDK; settings: both partners purified
T2 construct: Mcm2, subunit of MCM2–7, S. cerevisiae; Mcm3, subunit of MCM2–7, S. cerevisiae; Mcm4, subunit of MCM2–7, S. cerevisiae; Mcm5, subunit of MCM2–7, S. cerevisiae; Mcm6, subunit of MCM2–7, S. cerevisiae; Mcm7, subunit of MCM2–7, S. cerevisiae; DDK was added together with the factors, so the extent of phosphorylation at early times is not known; also called DDK-phosphorylated pre-RC; source: assembled …

B1: Sld2 (purified) (natural protein, S. cerevisiae, UniProt P34252 1-453, looked up)
chain: MYSFELDKLKIELKTWEHDFIDKNKREPTRDDIKSLRTVRQMYKQYSTLKKKQSLQRQKVDTQESVELPAHKKDHDEVVEIGPTPQVYGKAISIFDMNLSPIKPIYMTFTNNIDVNNDNSKTISNESSPRKTILLKSSPADRTLVAEPISSVKRQLNFQMLNASSTRTPTSSPCKNRNGKLVEIKKCSPTINPPLESGKPSGYYGPNSPLKLDEENIHLNISLNSSTKRRLQIAYPSLQKTPSKDQADISTSFSPSPLIRRPLTKSLIELAREHTEIVKEFGVLQEEDIEEEEEGEEGENGYDEKNHEDDFGLEDELIRPKVVKDIFQEDDDNDDSQAREDTFIRKRPKRRKVIRRLRDNDPETETAGFERDVHKELVKLKRRKVAEFLGSTSQISDTEFEHDPEASSGVVSSEQKPTAKRKGRKKYNLVSNNFRRLKLPKKNRFSNGRWGRR
notes: Sld2, S. cerevisiae; it may or may not be the same preparation as GST-Sld2; also called purified Sld2; source: purified
[1]
  fold reduction of binding when Sld3 is added, against Sld2 alone: ~4 fold
[2]
  fold increase of binding with DDK, against the pre-RC without DDK: ~2 fold
